Holding throughout (assay): EMSA; EMSA: PBS pH 7.4 (or KH2PO4/10 mM MgCl2 pH 6.0), 3.6 or 5 uM protein, 25 uM nt DNA, 37 C 15 min per strand, 0.8% agarose 1x TBE; cryo-EM: 20 mM KH2PO4 (Results: 10 mM), 10 mM MgCl2 pH 6.0, 37 C; native MS: 100 mM ammonium acetate pH 7, 37 C
What all share (conditions): protein: recombinant, tags: N-terminal 6His vector tag (20 aa) retained, chain copies: 10
For orientation: A gel shift assay detects complexes by their altered migration in electrophoresis.

The target in one series is T1, LiRecT V98W (Listeria innocua CLIP 11262, UniProt Q92FL9 1-271, V98W).
T1 sequence: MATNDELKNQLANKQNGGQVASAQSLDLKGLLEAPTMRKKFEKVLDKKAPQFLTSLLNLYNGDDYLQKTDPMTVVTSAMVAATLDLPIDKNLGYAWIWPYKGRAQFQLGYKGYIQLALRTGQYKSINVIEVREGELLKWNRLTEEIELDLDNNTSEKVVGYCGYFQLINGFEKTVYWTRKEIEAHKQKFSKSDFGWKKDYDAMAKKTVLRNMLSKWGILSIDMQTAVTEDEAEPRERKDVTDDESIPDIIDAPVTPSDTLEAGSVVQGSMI

For the next series, the target named is T2, LiRecT K215A/W216A (Listeria innocua CLIP 11262, UniProt Q92FL9 1-271, K215A;W216A).
T2 sequence: T1 sequence with W98V, K215A, W216A

The target of the next series is T3, LiRecT Q107A (Listeria innocua CLIP 11262, UniProt Q92FL9 1-271, Q107A).
T3 sequence: T1 sequence with W98V, Q107A

The next series deals with T4, LiRecT V98A/Y100A (Listeria innocua CLIP 11262, UniProt Q92FL9 1-271, V98A;Y100A).
T4 sequence: T1 sequence with W98A, Y100A

The target in the next series is T5, LiRecT K180A (Listeria innocua CLIP 11262, UniProt Q92FL9 1-271, K180A).
T5 sequence: T1 sequence with W98V, K180A

The mark [1] stands for this setting: label: 5'-Cy3;5'-Cy5, 49 bp, 1 nt 5' overhang at each end.

Where a chain is given by its changes, count along the chain named.

This is an account of results in paper PMC9772228, “Structure of a RecT/Redβ family recombinase in complex with a duplex intermediate of DNA annealing”.

Regarding CCATCCGCAAAAATCGAGCTATGCAGGGCGATTCTGCTCTAAGCCATCCG (ssDNA) [Cy5-50mer], the binding result in the series with LiRecT V98W (label: 5'-Cy5, single strand) is on record as “binds”; with LiRecT K215A/W216A (label: 5'-Cy5, single strand), “no binding”; with LiRecT Q107A (label: 5'-Cy5, single strand), “binds”; with LiRecT V98A/Y100A (label: 5'-Cy5, single strand), “binds”; in the series with LiRecT K180A (label: 5'-Cy5, single strand) it was “binds”.

B1: 50-mer duplex intermediate (sequential addition) (dsDNA)
DNA 1: GCGGATGGCTTAGAGCAGAATCGCCCTGCATAGCTCGATTTTTGCGGATG
DNA 2: CCATCCGCAAAAATCGAGCTATGCAGGGCGATTCTGCTCTAAGCCATCCG
With B1, the binding result is on record as “binds” with LiRecT V98W (setting [1]); “no binding” with LiRecT K215A/W216A (setting [1]); “binds” in the series with LiRecT Q107A (setting [1]); “binds” with LiRecT V98A/Y100A (setting [1]); “binds” in the series with LiRecT K180A (setting [1]).

As for GCGGATGGCTTAGAGCAGAATCGCCCTGCATAGCTCGATTTTTGCGGATG (ssDNA) [Cy3-50mer], the binding result with LiRecT V98W (label: 5'-Cy3, single strand) is listed as “binds”; with LiRecT K215A/W216A (label: 5'-Cy3, single strand), “no binding”; in the series with LiRecT Q107A (label: 5'-Cy3, single strand), “binds”; with LiRecT V98A/Y100A (label: 5'-Cy3, single strand), “binds”; in the series with LiRecT K180A (label: 5'-Cy3, single strand) it was “binds”.
